Data published in patent publication US8058507B2, “HOPM1 mediated disease resistance to Pseudomonas syringae in Arabidopsis” (priority 2007, dated 2011).
Residues, ends and D or L forms follow the SMILES beside them. *: point of attachment. Cbz = O=C(OCc1ccccc1)*

What was measured:
[1] = system: transgenic plants expressing full-length HopM1; experiment: DEX spraying of transgenic plants expressing full-length HopM1; format: in vivo, Arabidopsis
[2] = system: AtMIN7; experiment: Proteasome/protease inhibitors on HopM1-mediated destabilization of AtMIN7 in N. benthamiana leaves (immunoblot); format: cell-based, Arabidopsis thaliana; settings: AtMIN7:HA and 6×His:HopM1 1-712 co-expressed
Protocol: AtMIN-HA and 6×His-HopM1 proteins were detected using the HA and 6×His epitope antibodies, respectively. AtMIN7-HA was pulled down with HopM1-300 but not with 6×His-HopM1301-712; and (C) Western blot and reverse transcription polymerase chain reaction analyses of HopM1-dependent destabilization of AtMIN7 in Arabidopsis plants. Leaves of Col-0 gl1 plants were infiltrated with water or 1×10^8 CFUs per milliliter of DCEL mutant bacteria with or without pORF43 and harvested 10 hours later. The endogenousAtMIN7 protein—detected with the use of a rabbit polyclonal AtMIN7 antibody—was absent in leaves infiltrated with DCEL mutant bacteria (pORF43) that produce HopM1; however, the AtMIN7 transcript level was not reduced. […] AtMIN7:HA and 6×His:HopM11-712 proteins were detected with HA and 6×His epitope antibodies, respectively.
N. benthamiana plants were transiently transformed with HopM1 and AtMIN proteins. In brief, fully expanded N. benthamiana leaves were co-infiltrated with Agrobacterium tumefaciens C58 C1 (for an example of co-infiltration techniques, see, Hellens, et al. (2005) Plant Methods, 1:13; herein incorporated by reference) comprising plasmids and genes described herein (for example, see, Bechtold, et al. (1993) Comptes Rendus De L Academie Des Sciences Serie Iii-Sciences De La Vie-Life Sciences 316(10):1194-1199; herein incorporated by reference). […]

[3] = biological target: T1, AtMIN7-HA (Arabidopsis thaliana, UniProt F4IXW2, DEL212-213/INS429[…]); experiment: Protein pull-down assay in N. benthamiana leaves; format: binding; settings: Ni-NTA pull-down, immunoblot
T1 construct: expressed in transfected cells; host or cells: Nicotiana benthamiana leaves, Agrobacterium tumefaciens C58C1 co-infiltration (pBI121-AtMIN or pBAR1-AtMIN, CaMV 35S promoter)
T1 sequence (F4IXW2 with tags, fused parts or gaps DEL212-213/INS429[withheld]): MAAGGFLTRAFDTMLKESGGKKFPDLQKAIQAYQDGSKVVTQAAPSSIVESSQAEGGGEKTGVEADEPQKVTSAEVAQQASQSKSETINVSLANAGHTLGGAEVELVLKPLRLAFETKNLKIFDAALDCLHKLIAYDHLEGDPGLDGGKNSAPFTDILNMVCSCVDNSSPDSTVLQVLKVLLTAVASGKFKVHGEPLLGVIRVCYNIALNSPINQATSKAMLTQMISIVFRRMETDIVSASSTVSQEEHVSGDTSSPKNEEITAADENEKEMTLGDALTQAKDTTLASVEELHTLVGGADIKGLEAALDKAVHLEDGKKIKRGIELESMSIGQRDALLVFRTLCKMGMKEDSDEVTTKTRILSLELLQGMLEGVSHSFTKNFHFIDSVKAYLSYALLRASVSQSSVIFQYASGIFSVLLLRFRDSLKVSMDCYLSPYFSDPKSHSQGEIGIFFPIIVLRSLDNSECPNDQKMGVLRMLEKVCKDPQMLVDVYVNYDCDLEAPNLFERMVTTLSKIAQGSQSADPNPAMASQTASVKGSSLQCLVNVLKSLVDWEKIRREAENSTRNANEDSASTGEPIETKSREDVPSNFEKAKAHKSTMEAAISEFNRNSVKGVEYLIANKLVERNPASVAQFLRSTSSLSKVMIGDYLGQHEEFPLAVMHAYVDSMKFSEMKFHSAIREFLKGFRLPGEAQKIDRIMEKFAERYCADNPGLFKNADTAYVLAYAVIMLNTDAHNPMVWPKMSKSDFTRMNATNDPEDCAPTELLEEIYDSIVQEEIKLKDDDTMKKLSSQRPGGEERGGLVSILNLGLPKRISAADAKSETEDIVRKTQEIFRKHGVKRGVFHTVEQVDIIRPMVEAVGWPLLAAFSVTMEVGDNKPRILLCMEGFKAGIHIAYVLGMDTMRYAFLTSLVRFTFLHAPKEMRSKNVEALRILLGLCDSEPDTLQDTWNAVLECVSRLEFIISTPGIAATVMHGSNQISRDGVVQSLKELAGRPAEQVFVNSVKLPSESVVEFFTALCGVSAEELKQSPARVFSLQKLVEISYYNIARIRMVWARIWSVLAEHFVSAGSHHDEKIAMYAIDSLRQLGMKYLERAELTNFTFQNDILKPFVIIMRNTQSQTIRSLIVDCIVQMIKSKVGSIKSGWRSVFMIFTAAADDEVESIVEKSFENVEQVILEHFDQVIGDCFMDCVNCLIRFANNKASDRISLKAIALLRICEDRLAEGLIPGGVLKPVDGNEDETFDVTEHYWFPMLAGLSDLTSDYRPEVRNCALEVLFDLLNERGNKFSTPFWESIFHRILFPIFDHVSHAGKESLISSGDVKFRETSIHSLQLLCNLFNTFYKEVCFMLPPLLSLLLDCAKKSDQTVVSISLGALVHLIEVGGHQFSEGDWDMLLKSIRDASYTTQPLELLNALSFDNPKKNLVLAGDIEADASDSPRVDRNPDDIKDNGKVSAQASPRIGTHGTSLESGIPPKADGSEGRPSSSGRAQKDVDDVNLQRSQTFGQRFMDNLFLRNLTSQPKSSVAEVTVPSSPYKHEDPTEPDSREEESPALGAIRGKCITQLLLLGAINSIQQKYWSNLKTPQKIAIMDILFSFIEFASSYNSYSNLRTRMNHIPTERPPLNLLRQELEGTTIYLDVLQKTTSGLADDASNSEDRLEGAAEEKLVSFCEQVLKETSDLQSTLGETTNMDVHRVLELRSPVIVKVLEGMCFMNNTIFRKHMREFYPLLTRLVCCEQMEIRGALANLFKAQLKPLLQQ
Description: N. benthamiana plants were transiently transformed with HopM1 and AtMIN proteins. In brief, fully expanded N. benthamiana leaves were co-infiltrated with Agrobacterium tumefaciens C58 C1 (for an example of co-infiltration techniques, see, Hellens, et al. (2005) Plant Methods, 1:13; herein incorporated by reference) comprising plasmids and genes described herein (for example, see, Bechtold, et al. (1993) Comptes Rendus De L Academie Des Sciences Serie Iii-Sciences De La Vie-Life Sciences 316(10):1194-1199; herein incorporated by reference).
Protein pull-down analysis methods: N. benthamiana leaf discs were homogenized in lysis buffer (50 mM Tris-HCl pH=8.0, 250 mM NaCl, 10 mM β-mercaptoethanol, 1% Triton X100, 1 mM PMSF, plant protease inhibitor cocktail [Sigma Co.]). Total protein extracts were collected after centrifugation of the homogenate at 20,000-×g for 15 min at 4° C. to remove insoluble materials. The supernatant was incubated with Ni-NTA agarose beads (Qiagen) with gentle shaking for 1 hour at 4° C., followed by centrifugation at 15,000-×g for 1 min to pull down 6×His-HopM1 and its interacting proteins. Beads were then washed three times with lysis buffer and resuspended in 1×SDS-PAGE sample buffer for SDS-PAGE gel and/or immunoblot analyses. […] AtMIN10-HA was detected using the HA epitope antibody.

[4] = system: Pst DC3000 ΔCEL mutant-pORF43 bacteria; experiment: Bacterial multiplication and disease symptoms in HopM1 transgenic Arabidopsis plants; format: in vivo, Pseudomonas syringae
Protocol: (§1) Following inoculation, infected plants were monitored daily over a 3- to 4-day period for symptom development and bacterial multiplication. For experiments described in FIGS. 1 and 5, plants were sprayed with 30 μM dexamethasone (DEX) 24 h before bacterial inoculation (1×10^6 cfu/ml).
(§2) Leaves were harvested and surface sterilized as follows: 1) whole leaves were removed from a host plant and gently mixed in a 70% ethanol solution for 1 minute. Leaves were blotted briefly on paper towels then rinsed in sterile distilled water for 1 minute, then blotted dry on paper towels. Leaf disks were excised from leaves with a 0.5 cm^2 or smaller cork borer, depending on the size of the sample leaves; 2) leaf disks from the leaves of 2 or more independent replicate plants were pooled for a single tissue sample and placed in a 1.5-mL microfuge tube with 100 μL sterile distilled water, the amount of leaf tissue per tube was recorded as leaf surface area. Three or more samples were harvested for each time point. […] The number of serial dilutions necessary to get countable colonies were determined for each sample, however dilutions to 10^−7 were usually sufficient for any bacterial strain; 7) The samples were plated on the appropriate medium (e.g., Low salt Luria Bertani) supplemented with the necessary antibiotics to select for the specific inoculated bacterial strain. […]

[5] = system: Arabidopsis Y2H cDNA library; experiment: Yeast two-hybrid (Y2H) screening with HopM1 baits; format: binding; settings: protein used as bait
Description: A LexA-based yeast two-hybrid system was used for screening an Arabidopsis Y2H cDNA library using full-length HopM1 and the dominant-negative domain of HopM1 (HopM11-300) as bait, in separate screenings. This system was based upon a pGilda Lex A expression vector (CLONTECHniques, OCTOBER 1999 p. 26-27, Clontech Laboratories Inc.; herein incorporated by reference in its entirety) for expressing HopM1 proteins in combination with a lacZ reporter gene on a separate plasmid that autonomously replicated in yeast (CLONTECHniques, OCTOBER 1999 p. 26-27, Clontech Laboratories Inc.; herein incorporated by reference in its entirety), see below for addition information (see, MATCHMAKER LexA Two-Hybrid System Catalog #K1609-1 and MATCHMAKER LexA Libraries User Manual (PT3040-1) Version It PR67300 and (Yeast Protocols Handbook, Protocol # PT3024-1 Version # PR13103, published 14 Mar. 2001; herein incorporated by reference in its entirety).
hopM1 DNA fragments were amplified by PCR using the primers listed below and standard PCR procedures then fragments were isolated and cloned into a bait vector pGilda Lex A (resistance to ampicillin (100 μg/ml) to E. coli hosts; Protocol # PT3147-5; Version # PR81829; Clontech Laboratories, Inc.; herein incorporated by reference in its entirety). […]

[6] = system: Pst DC3000 ΔCEL mutant; experiment: Bacterial multiplication and disease symptoms in HopM1 transgenic Arabidopsis plants; format: in vivo, Pseudomonas syringae; settings: protein expressed in transgenic Arabidopsis (Col-0 gl1), DEX-induced
Protocol: as §1, §2

Molecule: C[C@@H]1C[C@H]2[C@@H]3CCC4=CC(=O)C=C[C@]4(C)[C@@]3(F)[C@@H](O)C[C@]2(C)[C@@]1(O)C(=O)CO [DEX, dexamethasone]
- leaf necrosis ([1]; 0.003 μM spray): did not induce leaf necrosis
- leaf necrosis ([1]; 30 μM DEX spray): induced rapid leaf necrosis
- time to leaf necrosis ([1]; 30 μM DEX spray): ≤ 10 h

Molecule: CC(C)C[C@@H](C=O)NC(=O)[C@H](CC(C)C)NC(=O)[C@H](CC(C)C)NC(=O)OCc1ccccc1 [MG132] (Cbz-Leu-Leu-Leu-aldehyde)
- HopM1-mediated destabilization of AtMIN7 [2]: blocked

Molecule: CC[C@H](C)[C@H](NC(=O)[C@H]([C@@H](C)CC)N(C)C(C)=O)C(=O)N[C@H](C(=O)N[C@@H](CC(C)C)C(=O)[C@@]1(C)CO1)[C@@H](C)O [epoxomicin]
- HopM1-mediated destabilization of AtMIN7 [2]: blocked

B1: HopM1301-712: HopM1 truncated derivative, amino acids 301-712 (protein)
chain: GPIVAAAVPQFLSSMTHLGYVRLSTSDKLRDTIPETSSDANMLKASIIGMVAGIAHETVNSVVKPMFQAALQKTGLNERLNMVPMKAVDTNTVIPDPFELKSEHGELVKKTPEEVAQDKAFVKSERALLNQKKVQGSSTHPVGELMAYSAFGGSQAVRQMLNDVHQINGQTLSARALASGFGGAVSASSQTLLQLKSNYVDPQGRKIPVFTPDRAESDLKKDLLKGMDLREPSVRTTFYSKALSGIQSSALTSALPPVTAQAEGASGTLSAGAILRNMALAATGSVSYLSTLYTNQSVTAEAKALKAAGMGGATPMLDRTETALNNIRHPNRESLPHTFQKSTLSGIPRVAENAYHMGRGALQLPTQMAVDTVRVVDEGVLNAVASAREALKQPTKDDDALRALEEGLLDPR
modifications: left off: small tags and cut ends
- physical interaction with AtMIN7-HA [3]: no interaction

B2: HopM11-300: N-terminal protective fragment of HopM1, amino acids 1-300 (SEQ ID NO:82) (protein, listed as Pseudomonas syringae)
chain: MISSRIGGAGGVELSRVNQQHDTVPAQTAHPNAVTAGMNPPLTPDQSGSHATESSSAGAARLNVAARHTQLLQAFKAEHGTAPVSGAPMISSRAALLIGSLLQAEPLPFEVMAEKLSPERYQLKQFQGSDLQQRLEKFAQPGQIPDKAEVGQLIKGFAQSVADQLEHFQLMHDASPATVGQHAKADKATLAVSQTALGEYAGRASKAIGEGLSNSIASLDEHISALDLTLQDAEQGNKESLHADRQALVDAKTTLVGLHADFVKSPEAKRLASVAAHTQLDNVVSDLVTARNTVGGWKGA
modifications: 6xHis tag
- effect on the function of full-length HopM1 delivered from the infecting bacteria ([4]; fragment expressed in transgenic Arabidopsis): dominant-negative effect
- disease symptoms (necrosis and chlorosis) and bacterial multiplication ([4]; transgenic Arabidopsis vs Col-0 gl1 or plants expressing other truncated derivatives): significantly reduced
- physical interaction with AtMIN7-HA [3]: physical interaction
- interactors recovered in Y2H screen [5]: 21

B3: HopM1101-712: HopM1 truncated derivative lacking the first 100 aa (SEQ ID NO:98) (protein, listed as Pseudomonas syringae)
chain: LLQAFKAEHGTAPVSGAPMISSRAALLIGSLLQAEPLPFEVMAEKLSPERYQLKQFQGSDLQQRLEKFAQPGQIPDKAEVGQLIKGFAQSVADQLEHFQLMHDASPATVGQHAKADKATLAVSQTALGEYAGRASKAIGEGLSNSIASLDEHISALDLTLQDAEQGNKESLHADRQALVDAKTTLVGLHADFVKSPEAKRLASVAAHTQLDNVVSDLVTARNTVGGWKGAGPIVAAAVPQFLSSMTHLGYVRLSTSDKLRDTIPETSSDANMLKASIIGMVAGIAHETVNSVVKPMFQAALQKTGLNERLNMVPMKAVDTNTVIPDPFELKSEHGELVKKTPEEVAQDKAFVKSERALLNQKKVQGSSTHPVGELMAYSAFGGSQAVRQMLNDVHQINGQTLSARALASGFGGAVSASSQTLLQLKSNYVDPQGRKIPVFTPDRAESDLKKDLLKGMDLREPSVRTTFYSKALSGIQSSALTSALPPVTAQAEGASGTLSAGAILRNMALAATGSVSYLSTLYTNQSVTAEAKALKAAGMGGATPMLDRTETALNNIRHPNRESLPHTFQKSTLSGIPRVAENAYHMGRGALQLPTQMAVDTVRVVDEGVLNAVASAREALKQPTKDDDALRALEEGLLDPR
- complementation of the virulence defect (multiplication, disease symptoms) [6]: partially restored
